B1: PPEF2 (parent)
chain: DHSGFISLDEFRQTWKLFSSHMNI
B2: P2RY14 (parent)
chain: KKIFKSHLKSSRNSTSVKKKSSRN

Variants of: B1
Test: protein stability index of a GFP-peptide fusion (GPS, HEK-293T) (PSI 1-6); higher = more stable
Conditions: c terminus: a fixed tail appended
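Further: lentivirally expressed fusions sorted by FACS into six bins by GFP to DsRed ratio, PSI derived from sequencing read proportions per bin multiplied by bin number.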

Variant | protein stability index
L17Y | 2.03
L17R | 1.62
L17V | 1.36
L17W | 1.29
L17P | 1.55
L17T | 1.88
L17N | 1.87
L17Q | 1.58
L17S | 2
L17M | 2.63
S20T | 1.85
S20F | 2.44
S20K | 1.81
S20R | 2.16
S20M | 2.81
S20W | 3.78
S20Q | 1.83
S20V | 3
S20L | 2.03
S20A | 2.14
S20N | 1.71
S20D | 2.15
S20G | 2.92
S20Y | 2.47

Variant | protein stability index
S20H | 1.63
S20E | 2.43
S20P | 1.96
S20I | 2.75
M22F | 2.32
M22L | 1.79
M22S | 1.55
M22G | 2.17
M22P | 2.6
M22I | 2.02
M22D | 2.41
M22W | 2.49
M22T | 1.6
M22Q | 1.88
M22Y | 2.21
M22N | 1.62
M22C | 2.98
M22E | 2.19
M22A | 1.88
M22H | 1.61
M22R | 1.91
M22V | 1.51
M22K | 2.1
I24L | 1.9

Variant | protein stability index
I24V | 2.01
I24F | 1.9
I24H | 1.7
I24N | 1.8
I24D | 1.96
I24M | 2.04
I24R | 1.63
I24S | 1.58
I24Q | 1.78
I24E | 1.99
I24W | 2.35
I24P | 1.87
I24K | 1.79
I24Y | 2.04
I24A | 1.96
I24G | 1.98
I24T | 1.89
I24C | 1.55
N23I | 2.18
N23G | 1.73
N23P | 1.84
N23Y | 2.57
N23K | 1.96
N23M | 2.57

Variant | protein stability index
N23V | 3.85
N23L | 2.3
N23T | 2.83
N23C | 2.72
N23H | 2.16
N23R | 1.31
N23E | 2.82
N23F | 3.35
N23Q | 1.86
N23D | 1.69
N23S | 2.26
N23W | 2.08
H21C | 2.9
H21K | 1.63
H21T | 2.09
H21N | 2.01
H21G | 2.22
H21L | 1.74
H21R | 2.23
H21A | 1.63
H21S | 1.86
H21D | 1.91
H21F | 2.27
H21W | 2.02

Variant | protein stability index
H21M | 1.49
H21E | 2.06
H21Q | 1.06
H21Y | 1.49
H21I | 2.54
H21P | 2.11
H21V | 2.84
S19H | 1.88
S19M | 1.78
S19F | 2.32
S19I | 2.22
S19G | 1.81
S19N | 1.07
S19D | 1.56
S19W | 1.87
S19A | 1.56
S19L | 1.46
S19P | 1.82
S19Y | 1.7
S19E | 1.3
S19T | 2.55
S19C | 1.54
S19K | 1.85
S19R | 1.7

Variant | protein stability index
S19V | 2.26
S19Q | 2.02
F18W | 1.87
F18V | 1.91
F18R | 1.8
F18E | 1.88
F18Q | 1.72
F18Y | 2.56
F18I | 2.51
F18D | 2.57
F18L | 1.46
F18K | 2.21
F18S | 2.14
F18G | 2.48
F18T | 1.82
F18N | 2.12
F18A | 1.96
F18C | 2.02
F18H | 1.55
F18M | 1.64
F18P | 1.96

Variants of: B2
Test: as above
Conditions: c terminus: a fixed tail appended

Variant | protein stability index
K20C | 3.67
K20Q | 4.04
S6P | 3.69
S6A | 3.68
K9G | 4.01
N24Y | 3.46
N24G | 4.57
H7T | 4.41
H7N | 4
H7Y | 3.38
K2P | 3.98
K2D | 4.66
V17H | 4.1
S21D | 4.42
K5T | 4.06
K5R | 3.67
K5A | 4.33
N13Q | 4.2
S14E | 4.35
F4M | 4.28
F4S | 4.72
K1L | 3.18
K1G | 4.51
L8P | 4.33
R23S | 4.28
S16D | 4.08

Reference: the supplement of paper PMC10567573
